The results in this text go back to US20060280645A1, “Method for terminal sterilization of transdermal delivery devices” (priority 2005, published 2006).

This series in a line: Terminal sterilization by e-beam irradiation: BNP purity and degradation products by RP-HPLC. The series is classed as physicochemical. To be noted: best performing system (Example 4). How it is done: FIGS. 14-16 detail the major degradation pathways for BNP coated on microprojections for all conditions treated by e-beam. […] All modes of degradation are reduced for the microprojection members packaged with desiccant and pre-dried retainer rings and purged with argon.
In this example, methionine from JT Baker (Phillipsburg, N.J.) was added to the BNP formulations in the amount of 1% by weight. These coating formulations were then irradiated using either e-beam or gamma radiation at varying temperatures and under varying atmospheric conditions. FIGS. 17-20 show the purity and degradation of the samples following gamma irradiation and FIGS. 21-24 show the purity and degradation of the samples following e-beam irradiation.
Further, systems packaged with pre-dried retainer rings performed better than systems stored with desiccant when terminally sterilized by e-beam. The best performing system retained 95.1% of the BNP purity, representing only approximately a 2% drop from the initial material purity.

As to BNP, the BNP purity retained is listed as 95.1% and the “drop from the initial material purity” value was approximately 2%.
